Test results as given in paper doi:10.1101/327866 (bioRxiv, 2018).
Numbering of substitutions follows the chain as printed.

B1: PA13P1H08 variant: heavy chain reverted to the inferred naive rearrangement, native light chain (antibody, V domains shown)
VH: QVQLVESGGGVVQPGRSLRLSCAASGFTFSSYGMHWVRQAPGKGLEWVAVISYDGSNKYYADSVKGRFTISRDNSKNTLYLQMNSLRAEDTAVYYCAKVLDYSNYYYYYGMDVWGQGTTVTVSS
VL: EIVLTQSPGTLSLSPGGRGTLSCRTSQTINNAHLAWYQHKPGQAPRLLIYGSSERATGVPDRFSGSGSGSDFTLTISSLEAEDFAVYYCQHYGRSPPYTFGPGTKLDIK
B2: PA13P1H08 variant: only the heavy chain CDR1 reverted to the inferred naive rearrangement, native light chain (antibody, V domains shown)
VH: QVQLVNSGGGVVQPGRSLRLSCVASGFTFSSYGIHWVRQAPGKGLEWVAVISNDGEKSESADSVKGRFTPSRDNSKNTVYLQMNNLRVEDTAVYYCAKVLDYSRYSYYYGMDVWGQGTTVIVSS
VL: B1 VL
B3: PA13P1H08 variant: only the heavy chain CDR2 reverted to the inferred naive rearrangement, native light chain (antibody, V domains shown)
VH: B2 VH with S31T, Y32F, N53Y, E56S, K57N, S58K
VL: B1 VL
B4: PA13P1H08 variant: only the heavy chain framework regions reverted to the inferred naive rearrangement, native light chain (antibody, V domains shown)
VH: B1 VH with S31T, Y32F, Y53N, S56E, N57K, K58S, N104R, Y106S
VL: B1 VL
B5: PA13P1H08 variant: only the heavy chain CDR3 reverted to the inferred naive rearrangement, native light chain (antibody, V domains shown)
VH: B2 VH with S31T, Y32F, R104N, S106Y
VL: B1 VL

Each binder was assayed against Ara h 2, purified natural peanut allergen (Arachis hypogaea (peanut), cultivar not …, UniProt Q6PSU2) (assay: BLI).

Binding result, binds:
B1
B2
B3
B4
B5

What follows are binders tested against Ara h 3, purified natural peanut allergen (Arachis hypogaea (peanut), cultivar not …, UniProt O82580) (assay: BLI).

Binding result, binds:
B1
B2
B3
B4
B5
